# Experimental data taken from publication PMC4961952 (Scientific Reports, 2016).
# B1: TH1(ZZ): recombinant human tyrosine hydroxylase isoform 1, purified on TALON resin as His6-ZZ-TH1 and cleaved by TEV protease (enzyme)
# chain: not shown
# notes: residues glycine and alanine left in front of the starting methionine after removal of the fusion partner (told in words); tyrosine hydroxylase isoform 1 (TH1), human, 497 residues (Met1-Gly497); cDNA from pET-TH cloned into pET-ZZ-1a; extra glycine in position 2 from cloning; numbers count on: human TH1; Contains cobalt from the TALON resin (0.70 mol/mol subunit); After cleavage the chain is the …
# B2: TH1(MBP): recombinant human tyrosine hydroxylase isoform 1, purified on amylose resin as His6-MBP-TH1 and cleaved by TEV protease (enzyme)
# chain: not shown
# notes: residues glycine and alanine left in front of the starting methionine after removal of the fusion partner (told in words); tyrosine hydroxylase isoform 1 (TH1), human, 497 residues (Met1-Gly497); cDNA from pET-TH cloned into pET-MBP-1a; extra glycine in position 2 from cloning; numbers count on: human TH1; Iron-containing preparation (0.25 mol/mol subunit), no cobalt; After cleavage the chain is …
# Target: the molecule itself
# Assay: SEC; analytical gel filtration of the TEV-cleaved fusion protein on a Superdex 200 Increase 10/300 column
row,Protein,stoichiometry N
1,B1,4
2,B2,4
